The target of series [1] is BcsQ (in the Bcs macrocomplex) (E. coli 1094) (UniProt P37655). Put plainly: cryo-EM structure.
For series [2], the target named is BcsQ^His (E. coli 1094) (UniProt P37655). Description: crystal structure.
The target in series [3] is T1, BcsA^HA-FLAG (in the Bcs macrocomplex) (E. coli 1094, UniProt P37653 1-872).
T1 sequence (looked up): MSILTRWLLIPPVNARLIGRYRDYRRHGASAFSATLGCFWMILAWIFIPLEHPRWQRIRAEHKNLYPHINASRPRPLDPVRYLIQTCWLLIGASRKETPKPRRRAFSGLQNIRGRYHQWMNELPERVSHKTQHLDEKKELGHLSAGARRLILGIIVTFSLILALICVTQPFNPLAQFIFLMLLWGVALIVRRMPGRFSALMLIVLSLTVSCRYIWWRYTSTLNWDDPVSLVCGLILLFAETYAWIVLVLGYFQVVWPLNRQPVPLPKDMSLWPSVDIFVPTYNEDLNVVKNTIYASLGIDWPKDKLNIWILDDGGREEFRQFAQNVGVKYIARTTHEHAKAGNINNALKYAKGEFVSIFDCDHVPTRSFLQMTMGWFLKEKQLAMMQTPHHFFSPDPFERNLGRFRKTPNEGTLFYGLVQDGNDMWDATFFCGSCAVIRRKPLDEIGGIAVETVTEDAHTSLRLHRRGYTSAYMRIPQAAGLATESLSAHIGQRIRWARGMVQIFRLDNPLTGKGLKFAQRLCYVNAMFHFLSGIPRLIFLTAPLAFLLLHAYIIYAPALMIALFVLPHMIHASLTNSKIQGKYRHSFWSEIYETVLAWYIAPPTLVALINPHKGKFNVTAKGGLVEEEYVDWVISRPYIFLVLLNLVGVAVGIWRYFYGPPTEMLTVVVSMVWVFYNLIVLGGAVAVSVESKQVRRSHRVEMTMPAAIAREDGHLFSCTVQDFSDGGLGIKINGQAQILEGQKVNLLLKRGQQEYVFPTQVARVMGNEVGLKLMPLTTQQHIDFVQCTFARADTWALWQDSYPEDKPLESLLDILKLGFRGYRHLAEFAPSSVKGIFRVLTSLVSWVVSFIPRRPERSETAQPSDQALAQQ
Description: cryo-EM structure.

Series [4] concerns the molecule itself. Description: cryo-EM structure.
Series [5] concerns the molecule itself. Put plainly: cryo-EM structure. This is another data set of the same source.

4 molecules from article PMC7840130 (Science Advances, 2021) can be followed below.

The term stoichiometry N denotes the number of molecules, sites or subunits per partner or assembly.

Where two headings read alike, the source gives them in different places.

“BcsQ (in the Bcs macrocomplex) (from UniProt P37655 1-242) (natural protein)” registered a stoichiometry N in series [1] of 2.
Molecule “BcsQ^His (from UniProt P37655 1-242) (natural protein)” showed a stoichiometry N in series [2] of 2.

B1: BcsB (in the Bcs macrocomplex) (natural protein, E. coli 1094, UniProt P37652 26-779, looked up)
chain: TPATQPLINAEPAVAAQTEQNPQVGQVMPGVQGADAPVVAQNGPSRDVKLTFAQIAPPPGSMVLRGINPNGSIEFGMRSDEVVTKAMLNLEYTPSPSLLPVQSQLKVYLNDELMGVLPVTKEQLGKKTLAQMPINPLFISDFNRVRLEFVGHYQDVCEKPASTTLWLDVGRSSGLDLTYQTLNVKNDLSHFPVPFFDPSDNRTNTLPMVFAGAPDVGLQQASAIVASWFGSRSGWRGQNFPVLYNQLPDRNAIVFATNDKRPDFLRDHPAVKAPVIEMINHPQNPYVKLLVVFGRDDKDLLQAAKGIAQGNILFRGESVVVNEVKPLLPRKPYDAPNWVRTDRPVTFGELKTYEEQLQSSGLEPAAINVSLNLPPDLYLMRSTGIDMDINYRYTMPPVKDSSRMDISLNNQFLQSFNLSSKQEANRLLLRIPVLQGLLDGKTDVSIPALKLGATNQLRFDFEYMNPMPGGSVDNCITFQPVQNHVVIGDDSTIDFSKYYHFIPMPDLRAFANAGFPFSRMADLSQTITVMPKAPNEAQMETLLNTVGFIGAQTGFPAINLTVTDDGSTIQGKDADIMIIGGIPDKLKDDKQIDLLVQATESWVKTPMRQTPFPGIVPDESDRAAETRSTLTSSGAMAAVIGFQSPYNDQRSVIALLADSPRGYEMLNDAVNDSGKRATMFGSVAVIRESGINSLRVGDVYYVGHLPWFERVWYALANHPILLAVLAAISVILLAWVLWRLLRIISRRRLNPDNE
On to B1, for which the binding result in series [3] is “binds”. For the same molecule, in series [4], the “stoichiometry N” value is no more than 6.

B2: full-length E. coli BcsB^His (natural protein, E. coli 1094, UniProt P37652 26-779, looked up)
chain: B1 chain
As to B2, the “stoichiometry N” value in series [5] worked out at 8.
